Results from US20240124563A1.

Legend:
[1] = biological target: monkey MSLN full-length protein on HEK293T cells (monkey); assay: FACS, HEK293T-monkey-MSLN cells, antibody 0.00128 nM
[2] = biological target: monkey MSLN full-length protein on HEK293T cells (monkey); assay: FACS, HEK293T-monkey-MSLN cells, antibody 0.16 nM
[3] = biological target: monkey MSLN full-length protein on HEK293T cells (monkey); assay: FACS, HEK293T-monkey-MSLN cells, antibody 4 nM
[4] = biological target: monkey MSLN full-length protein on HEK293T cells (monkey); assay: FACS, HEK293T-monkey-MSLN cells, antibody 0.8 nM
[5] = biological target: monkey MSLN full-length protein on HEK293T cells (monkey); assay: FACS, HEK293T-monkey-MSLN cells, antibody 0.0064 nM
[6] = biological target: monkey MSLN full-length protein on HEK293T cells (monkey); assay: FACS, HEK293T-monkey-MSLN cells, antibody 0.032 nM
[7] = biological target: monkey MSLN full-length protein on HEK293T cells (monkey); assay: FACS, HEK293T-monkey-MSLN cells, antibody 20 nM
[8] = biological target: monkey MSLN full-length protein on HEK293T cells (monkey); assay: FACS, HEK293T-monkey-MSLN cells, antibody 100 nM
[9] = biological target: monkey MSLN full-length protein on HEK293T cells (monkey); assay: FACS, HEK293T-monkey MSLN cells
[10] = biological target: human MSLN-R3 protein on HEK293T cells (human) (UniProt Q13421); assay: FACS, HEK293T-hMSLN R3 cells
Sequence of human MSLN-R3 protein on HEK293T cells (human) (Q13421 495-614, form in doubt): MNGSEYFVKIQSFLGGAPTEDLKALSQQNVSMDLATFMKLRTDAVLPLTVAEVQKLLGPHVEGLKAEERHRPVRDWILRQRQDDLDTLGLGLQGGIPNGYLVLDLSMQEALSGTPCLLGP

FACS signal (MFI) [1] | FACS signal (MFI) [2] | FACS signal (MFI) [3] | FACS signal (MFI) [4] | FACS signal (MFI) [5] | FACS signal (MFI) [6] | FACS signal (MFI) [7] | FACS signal (MFI) [8] | EC50 [9] [nM] | Max MFI [9] | Mean Fluorescence Intensity of Cells [10] | Binder
119 | 288 | 3140 | 918 | 96 | 131 | 3650 | 3930 | – | – | – | Tab107 (YP3, hIgG1) (antibody, V domains shown) VH: QEQLVESGGGLVQPGASLTLTCTASGIDFSRYYMCWVRQAPGKGLEGIACIYIGGSGSTYYASWAKGRFTISKASSTTVTLQMTSLTAADTATYFCARGTNLNYIFRLWGPGTLVTVSS VL: DVVMTQTPSPVSAAVGGTVTIKCQASQSINNGLAWYQQKPGQPPRLLIYSASNLESGVPSRFKGSGSGTEFTLTISDLECDDAATYYCQCIWDGNSYVNAFGGGTEVVVRT
85 | 86 | 90 | 88 | 85 | 85 | 100 | 126 | – | – | – | Tab020 (YP223, rabbitIgG1) (antibody, V domains shown) VH: QEQLEESGGDLVQPEGSLTLTCKASGLDFSSSYWICWVRQAPGKGLEWIGCRHTFTANTWSASWVNGRFTISRSTSLGTVDLKMTSLTAADTATYFCARDESNNDGWDFKLWGPGTLVTVSS VL: AYDMTQTPASVSAAVGGTVTIKCQASQSISNYLAWYQQKPGQPPKLLIYQASTLAPGVSSRFKGSGSGTEFTLTISGVECADAATYYCQQGYTSSNVENVFGGGTGVVVGD
90 | 313 | 2440 | 860 | 100 | 142 | 2660 | 3290 | 1.15 | 8640 | 1690 | Tab106 (YP218, hIgG1) (antibody, V domains shown) VH: QQQLEESGGGLVKPEGSLTLTCKASGFDLGFYFYACWVRQAPGKGLEWIACIYTAGSGSTYYASWAKGRFTISKASSTTVTLQMTSLAAADTATYFCARSTANTRSTYYLNLWGPGTLVTVSS VL: DVVMTQTPASVSEPVGGTVTIKCQASQRISSYLSWYQQKPGQRPKLLIFGASTLASGVPSRFKGSGSGTEYTLTISDLECADAATYYCQSYAYFDSNNWHAFGGGTEVVVRT
